The source of these data is article PMC3500560 (The Journal of neuroscience : the official journal of the …, 2011).

The series “SEC-MALS” concerns the molecule itself. The experiment in a line: SEC-MALS. For orientation: In gel filtration, larger molecules generally elute earlier.
The series “cross-linking” deals with the molecule itself. Description: cross-linking.

B1: MBP-LH1 fusion protein (domain or fragment)
chain: not shown
One may read the stoichiometry N as the number of molecules, sites or subunits per partner or assembly. As to B1, the “stoichiometry N” value in “SEC-MALS” came out at 2.

B2: His6-tagged SYD-2LH1 (domain or fragment)
chain: not shown
As to B2, the “stoichiometry N” value in the series “cross-linking” was 2.
